We go through one substance from article PMC7532188.

This test concerns the target His-tagged TASOR(354–633), tandem SPOC-DomI construct (human) (UniProt Q9UK61). In words: SEC-MALS; complex co-expressed in E. coli and purified by Ni-affinity; Superdex 200 (10/300), 293 K, 20 mM HEPES pH 7.5, 0.5 M NaCl, 0.5 mM TCEP.
UniProt Q9UK61, sequence (Q9UK61 354-633): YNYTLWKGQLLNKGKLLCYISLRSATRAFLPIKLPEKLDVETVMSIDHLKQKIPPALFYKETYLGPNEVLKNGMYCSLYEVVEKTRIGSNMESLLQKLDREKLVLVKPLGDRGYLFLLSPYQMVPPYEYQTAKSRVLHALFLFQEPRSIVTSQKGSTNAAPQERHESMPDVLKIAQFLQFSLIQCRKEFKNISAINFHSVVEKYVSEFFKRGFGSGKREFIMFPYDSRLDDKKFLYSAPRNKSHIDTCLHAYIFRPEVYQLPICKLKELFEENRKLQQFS

“MPP8 C-terminus (residues 528–860) (from UniProt Q99549-1 528-860) (domain or fragment)” showed a stoichiometry N of 1.
